# According to the DeepSol protein solubility set:
# Assay: soluble on expression in E. coli; label from the status in PepcDB or PDB records
row,Sequence,soluble on expression in E. coli
1,MAHHHHHHMVWFSAPDNSEFLGDPLPRKARQPKVHLATEVSVEASVPWEDVSSWECGSQTSRNSSRSSTSDNAANGHVANINKFHDRMELIRRLNKRRRNNSTCRESGRTEQWTCQPLYVGVSTFPEMKEMSPKSVGGENVPFWNGAVVHDSPLMTDRSGSEVDKKPLKTRKCAWNLTYVRKNDWPEAHQMHEGDAII,not soluble
2,MLEHRRLFPGRRYDSRVYRSCASPMPYLLEEKLRGTAMEQRTPPSEAVISGPATPGLAEGKISAYLLDLATRTLRPPTFPPLSDSTVTAKDTVCLVGGPELAWLAVGMTPFRNITSVTLQQGELKSCSLQESMEWMRLAHLLKAAPEQVNGDGGEALALQRRLAAVRTDLVLLDLLANGHPTTGLPQVLATPFADVLDAYVDMEKEQHSAAAPSAPQNVGRLRSVLFDEEPVTGVHLEQPSLRLRLVSLQQLLVRIVRALSGAHVGLPAGNRPTPHAATLLEMTLQTHGLLCGGGVPSQAWSPTPDPADASSGGSSTAALNGTVLLDKFPRLSAEMLLQHVTYLLSNEAKQRTANAADGAGEGSDSIYLSPQRTRHFGLTGVETLLLSATQAEQVNQVLPLYVRGHTLPDEVASDITQTRNIHEAVRKTQRVLSRVLQQASQELASQSGSGTAAVDDAGHNGPHPALAHLPSHLFVRTAGARGPPPGWEYYGVHLGIKAEAMNVRYNLNASDTATLHLIDSSGSSNSGGVTATAGSEVGAESTRSGMPG,not soluble
3,MSESSRIREKYPDRIPVIVEKAGQSDVPDIDKKKYLVPADLTVGQFVYVVRKRIKLGAEKAIFVFVKNTLPPTAALMSAIYEEHKDEDGFLYMTYSGENTFGSLTVA,soluble
4,MSSSPTSSSSGSPSSHGHRSETEKQRRDDTNDLLNEFKKIVQKSESEKLSKEEVLFRIVKLLSGIQLHHESFSTSPGPIRSIKKIKSDREQVRRNKRVAAYRELRKFIALNNLSSSEEIDKMENLKVLEIIFEVIRGKSITCTVPCLPFPILPFLPVFPVYSPLVFNSYNQFSLYPPHMPTVQIPIVPSSSFEIDALEIEENEKDIDIVG,soluble
5,MEGLFESLPEGYREKLGRPGEYPFTRGIYPRMYLERLWTMRQYAGFSTAEESNARYRYLLSQGQTGLSVAFDLPTQLGLDPDHPMSVGEVGRVGVSIATLEDMQKLFDGIPLDQVSTSMTINAPAMMLLALYLLVAEAQGVPWDKVSGTVQNDILKEYFARGTYIYPPGPSMRLVTDIFEFCAAHVPRWNTISISGYHIREAGSTAAQEIAFTLADAKAYVRAALERGLDVDRFAPRLSFFFAAHGDIFEEAAKFRAARRLWARIMREEFGAKDPKSWMLRFHTQTGGSTLTAQEPLNNVVRTAYQALAAVLGGTQSLHTNAYDEALGLPTEKSALLALRTQQILAYESGVTRAIDPLGGSFYVEHLTDKLEREAEQILREIDALGGAVAAVEAGYFQRALEESAWQFQKEVEEGKRVIVGVNRFFDPNSPLNEPVPVQRIDPELHERRKRELAAFKANRDGESVRVGLERLREAARGEENLFPYVLEAFRRRATLGEVCGVLREEWGEYQPPR,soluble
6,AAIDPNRIVALEWLPVELLLALGIVPYGVADTINYRLWVSEPPLPDSVIDVGLRTEPNLELLTEMKPSFMVWSAGYGPSPEMLARIAPGRGFNFSDGKQPLAMARKSLTEMADLLNLQSAAETHLAQYEDFIRSMKPRFVKRGARPLLLTTLIDPRHMLVFGPNSLFQEILDEYGIPNAWQGETNFWGSTAVSIDRLAAYKDVDVLCFDHDNSKDMDALMATPLWQAMPFVRAGRFQRVPAVWFYGATLSAMHFVRVLDNAIGGKA,soluble
7,MGTLWWNGTFFTMVHEGDQVEAVFTEDGKIVAIGTAEELRQRYSTRINQEMNCDGAYVYPGFVDSHLHMIGLEHHHHHH,not soluble
8,MTTPAVKMVVAYVTAPSKEVAMTVARTTVTEALAACANVIPEVTSVYKWQGKIEEDQEHVVILKTVESKVEELSARVRSLHPAETPCFFTLAIDKITPDFGGWIVDSTNSSTAKH,soluble
9,PRAAARGGGGDAGTRGRGFVQAGRGAPMAECGRGGAAGGALPTSPGPALGAKGALKAGVGEGGGGGGRLGHGRARYDSGGVSNGDCSLGVSGDEARASPTRGPRGVALAPTPSAVVCTLPRESKPGGLPRRSSIIKDGTKQKRERKKTVSFSSMPTEKKISSASDCINSMVEGSELKKVRSNSRIYHRYFLLDADMQSLRWEPSKKDSEKAKIDIKSIKEVRTGKNTDIFRSNGISDQISEDCAFSVIYGENYESLDLVANSADVANIWVTGLRYLISYGKHTLDMLESSQDNMRTSWVSQMFSEIDVDNLGHITLCNAVQCIRNLNPGLKTSKIELKFKELHKSKDKAGTEVTKEEFIEVFHELCTRPEIYFLLVQFSSNKEFLDTKDLMMFLEAEQGVAHINEEISLEIIHKYEPSKEGQEKGWLSIDGFTNYLMSPDCYIFDPEHKKVCQDMKQPLSHYFINSSHNTYLIEDQFRGPSDITGYIRALKMGCRSVELDVWDGPDNEPVIYTGHTMTSQIVFRSVIDIINKYAFFASEYPLILCLENHCSIKQQKVMVQHMKKLLGDKLYTTSPNVEESYLPSPDVLKGKILIKAKKLSSNCSGVEGDVTDEDEGAEMSQRMGKENMEQPNNVPVKRFQLCKELSELVSICKSVQFKEFQVSFQVQKYWEVCSFNEVLASKYANENPGDFVNYNKRFLARVFPSPMRIDSSNMNPQDFWKCGCQIVAMNFQTPGLMMDLNIGWFRQNGNCGYVLRPAIMREEVSFFSANTKDSVPGVSPQLLHIKIISGQNFPKPKGSGAKGDVVDPYVYVEIHGIPADCAEQRTKTVHQNGDAPIFDESFEFQINLPELAMVRFVVLDDDYIGDEFIGQYTIPFECLQTGYRHVPLQSLTGEVLAHASLFVHVAITNRRGGGKPHKRGLSVRKGKKSREYASLRTLWIKTVDEVFKNAQPPIRDATDLRENMQNAVVSFKELCGLSSVANLMQCMLAVSPRFLGPDNTPLVVLNLSEQYPTMELQGIVPEVLKKIVTTYDMMIQSLKALIENADAVYEKIVHCQKAAMEFHEHLHSIGTKEGLKERKLQKAVESFTWNITILKGQADLLKYAKNETLENLKQIHFAAVSCGLNKPGTENADVQKPRRSLEVIPEKANDETGE,soluble
10,MSLTHEEAVAIHKEKMEALEMQMKLILVLDLDQTVLHTTYGTSSLEGTVKFVIDRCRYCVKLRPNLDYMLRRISKLYEIHVYTMGTRAYAERIVEIIDPSGKYFDDRIITRDENQGVLVKRLSRLFPHDHRNIVILDDRPDVWDYCENLVLIRPFWYFNRVDINDPLRLKRKIEKEAGENKALEEGHHHHHH,not soluble
11,MHTFYLPFILSLSMPPKKKSSKTIYKFPQSFHDLPKSLSKNYYQPEPESIINDQIIIIKNFFNKDLCNELIKSFETQLNMETTPLIKSKEYAARFNDRSSMNDLLSANILWQYLQKILLDNPYNDEDLKEINQIFQDAVGLNPQLRVYRYTRGHHFGKHYDDSVICPIPPQGTKKGYTTWTLLIYLTGDEEFKGGGTIFYPEIKNIKPLNIHPNKGMALLHKHGDDCLKHEAEMVANGAKWVLRSDVVFPI,soluble
12,MQIDKLRGRELDQLFKAILSLRDLEECYRFFDDLCTVNEIQALAQRLEVARMLREGYTYHKIETETGASTATISRVKRCLNYGNDAYAMALDRIKEEQQQEEKEANEAVTD,not soluble
13,MPGNHSEISLNEQNRVDDNDTKTKTTTRKKKKKKDVTIVDDDDNQFDTTNQLVKSKNRFLGKFRKKPKSPKRWSGSRKGGCFRVMRPRRREGGDDDSSVSSPVSDPNDERFSHEMLRVMLETNDFCSDECNPHR,soluble
14,MAHHHHHHMDLFSIASNLQQIAIGGVNFVNSKLRKKSATAECNYITYIVIGENEKQPYDTNIFFLPFKICGKIKLEEFKEFFPFKDNVIFRFKIPVSDLIDVINEGIVNHAPLMREDSNERNQVKHIISDENEIKNILRQDQFSHLWVDITSEEAYIPFYNGNIVVKVLFI,not soluble
15,MSLCGISGLVQLEGVADTSAMRRSVETMVKALAHRGPDDSGVAGDGSAVFGMARLAIRGCHDGRQPMVDAETGVMMVCNGEIDNHAELRGWLAERGRAVEHATDVAVIPGLYLELGDGFVERLVGAFALAVWDPRRGRLLLARDRAGERPLFYACRDGRVSFASQAAALVAGSPEPYPADEAAVQAFLKAGYFEAPASPFAGMRKVLPGERIAIDVKGVERSRYWRLNFTRGPARKNPLDEFDAVFREAVRRQSEVEVDFGAFLSGGVDSSLVTAVMRSVHPDRKLKAFGLRFSESSYDEGVFAERVAESLGVDYTPIWVRPEDFPETLADLVRQSGEPLADPAWVPTALLARRASDEVRVALVGEGADELFGGYPTYFGARLAERYSRLPGGLRALIRKAVEAWPVSDKKVTVSFLLKRFVQGDELDFLARHVLWTSSIPPALLRRLGVTPPETPHVAGPQETMLDRLQQHDLETSLAEGLLTKADRASMRSALELRAPFLDKDVIEFAATLPERERVQGLETKVFLKRVALRYLPKDIVYRKKRGLSVPLSAWLRGPLHDWAEARISSPRLEELGINRAAALELLREHERRSADHARALWTLIVVSEWLEWKAGMEAHEGHHHHHH,soluble
16,MGHHHHHHSHMGARMTRAFRNFNVEKRAEQEISKRKPSMAPKHPSTRSLLQEHLSQYPEIEEEVSRKDNKLLSLLRDVYVNSKDPVPSLPVKAIEPQQQPKEFRLPIGDQFDKNIKDIPKGKITVVEALTLLNNHKLSPETWTAEKIAQEYHLELEDVNSLLKYFVTFEVKIVPPEDRKAIQSK,not soluble
17,MVVSAMAGLEENGSEPTAPRADPQGDPFLRTRFALPTRPGTFLRRERLVRHLDHALRTPLTMVNGAAGAGKTLLVADWAAGQDRSVAWLTTDAADQGCGTFWAYLLQALRACDVPLPAEVGFPADANRVDHTLLARLAADLSVRDRPVVVVLDEYDRVTDPEIADQLEFV,not soluble
18,MDGDGDPESVSHPEEASPEEQPEEAGAEASAEEEQLREAEEEEEAEAVEYLAELPEPLLLRVLAELPATELVQACRLVCLRWKELVDGAPLWLLKCQQEGLVPEGSADEERDHWQQFYFLSKRRRNLLRNPCGEEDLEGWSDVEHGGDGWKVEELPGDNGVEFTQDDSVKKYFASSFEWCRKAQVIDLQAEGYWEELLDTTQPAIVVKDWYSGRTDAGSLYELTVRLLSENEDVLAEFATGQVAVPEDGSWMEISHTFIDYGPGVRFVRFEHGGQDSVYWKGWFGARVTNSSVWVEP,soluble
19,MNNQQAAIASARSRMAAGGQPQGATPGQPDQNFDYMFKLLIIGNSSVGKTSFLFRYCDDSFTSAFVSTVGIDFKVKTVFRGDKRVKLQIWDTAGQERYRTITTAYYRGAMGFILMYDITNEESFNSVQDWCTQIKTYSWENAQVVLVGNKCDMDSERVVSMDRGRQLADQLGLEFFETSAKENINVKAVFEKLVEIICDKMAESLDKDPQQQPKGQKLEANPTQKPAQQQCNC,not soluble
20,MQNSTTEFLKPRQIDVNTFSATRAKVSMQPFERGFGHTLGNALRRILLSSMNGFAPTEVAIAGVLHEYSTVDGIQEDVVDILLNIKGIVFKLHGRSQVQLVLKKSGSGVVSAGDIELPHDVEILNPGHVICHLADNGQIEMEIKVEQGRGYQSVSGRQVVRDENRQIGAIQLDASFSPISRVSFEVEPARVEQRTDLDKLVLDIETDGSIDPEEAVRSAARILIDQMSIFADLQGTPVEEVEEKAPPIDPVLLRPVDDLELTVRSANCLKAEDIYYIGDLIQRTETELLKTPNLGRKSLNEIKEVLASKGLTLGSKLEAWPPVGLEKP,soluble
21,MATLLFFSKPISDFVLGDKVGFDAKILESNDRILLIKPLQIGVDSNISVIDNEGKIFSFYVFSTTFTSSKHPNLQVFIEDKNYYSNAFLKPQKENMAENAPKDAPTNNKPLKEEKEETKEKEEETITIGDNTNAMKIVKKDIQKGYKALKSSQRKWYCLGICSKKSKLSLMPKEIFNDKQFTYFKFDKRLALSKFPVIYKVVDGYDNPVNTRIVGDYIIAEDVSAKWTLRLGKDYLCIRFVKKAKDE,not soluble
